Measured values: patent publication US20100169988A1 (published 2010)

Key:
APP-TAP-AICD [1] = target: T1, APP-TAP-AICD (human, UniProt P05067 18-695); experiment: streptavidin purification of APP-TAP-AICD from brain homogenate; LTQ-FT semiquantitative method, transgenic mouse 75 vs control mouse 72
APP-TAP-AICD [2] = target: T1, APP-TAP-AICD; experiment: streptavidin purification of APP-TAP-AICD from brain homogenate; iTRAQ 116/114, transgenic mouse 75 vs control mouse 72; MALDI-TOF/TOF;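 further: relative protein abundance in the transgenic versus control pull-down, limited to proteins with high quality scores and above-average enrichment, without full normalization across the whole measurement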
Source text: Shown are all proteins that have high quality scores and are enriched above average in the m75 sample. Purified bait protein is given underlined. Other already known interaction partners of AICD or putatively biologically relevant proteins are given in bold. As full normalization over the entire measurement was not possible through the GPS explorer software suite, this conservative estimate had to be taken for determining the enriched vs. the non-enriched proteins. […] Ranking is in order of abundance ratio.

| Binder | probability that this protein is enriched (APP-TAP-AICD [1]) | iTRAQ ratio (APP-TAP-AICD [2]) |
| --- | --- | --- |
| 14-3-3 protein beta/alpha (Protein kinase C inhibitor protein 1) (KCIP-1) (other, mouse, UniProt Q9CQV8 1-246, looked up, also called 14-3-3 β) MTMDKSELVQKAKLAEQAERYDDMAAAMKAVTEQGHELSNEERNLLSVAYKNVVGARRSSWRVISSIEQKTERNEKKQQMGKEYREKIEAELQDICNDVLELLDKYLILNATQAESKVFYLKMKGDYFRYLSEVASGENKQTTVSNSQQAYQEAFEISKKEMQPTHPIRLGLALNFSVFYYEILNSPEKACSLAKTAFDEAIAELDTLNEESYKDSTLIMQLLRDNLTLWTSENQGDEGDAGEGEN | 1 | – |
| ATP synthase e chain, mitochondrial (enzyme, mouse, UniProt Q06185 2-71, looked up, also called epsilon chain) VPPVQVSPLIKFGRYSALIIGMAYGAKRYSYLKPRAEEERRIAAEEKKRLDELKRIERELAEAQDDSILK | 0.88 | – |
| 2',3'-cyclic-nucleotide 3'-phosphodiesterase (CNPase) (enzyme, mouse, UniProt P16330 1-417, looked up, also called CN37_MOUSE) MNTSFTRKSHTFLPKLFFRKMSSSGAKEKPELQFPFLQDEDTVATLHECKTLFILRGLPGSGKSTLARLILEKYHDGTKMVSADAYKIIPGSRADFSEAYKRLDEDLAGYCRRDIRVLVLDDTNHERERLDQLFEMADQYQYQVVLVEPKTAWRLDCAQLKEKNQWQLSADDLKKLKPGLEKDFLPLYFGWFLTKKSSETLRKAGQVFLEELGNHKAFKKELRHFISGDEPKEKLELVSYFGKRPPGVLHCTTKFCDYGKAAGAEEYAQQEVVKRSYGKAFKLSISALFVTPKTAGAQVVLTDQELQLWPSDLDKPSASEGLPPGSRAHVTLGCAADVQPVQTGLDLLDILQQVKGGSQGEAVGELPRGKLYSLGKGRWMLSLTKKMEVKAIFTGYYGKGKPVPIHGSRKGGAMQIC | 0.87 | – |
| 14-3-3 protein theta (14-3-3 protein tau) (other, mouse, UniProt P68254 1-245, looked up, also called 14-3-3 θ) MEKTELIQKAKLAEQAERYDDMATCMKAVTEQGAELSNEERNLLSVAYKNVVGGRRSAWRVISSIEQKTDTSDKKLQLIKDYREKVESELRSICTTVLELLDKYLIANATNPESKVFYLKMKGDYFRYLAEVACGDDRKQTIENSQGAYQEAFDISKKEMQPTHPIRLGLALNFSVFYYEILNNPELACTLAKTAFDEAIAELDTLNEDSYKDSTLIMQLLRDNLTLWTSDSAGEECDAAEGAEN | 1 | – |
| 14-3-3 protein eta (other, mouse, UniProt P68510 2-246, looked up, also called 14-3-3 η) GDREQLLQRARLAEQAERYDDMASAMKAVTELNEPLSNEDRNLLSVAYKNVVGARRSSWRVISSIEQKTMADGNEKKLEKVKAYREKIEKELETVCNDVLALLDKFLIKNCNDFQYESKVFYLKMKGDYYRYLAEVASGEKKNSVVEASEAAYKEAFEISKEHMQPTHPIRLGLALNFSVFYYEIQNAPEQACLLAKQAFDDAIAELDTLNEDSYKDSTLIMQLLRDNLTLWTSDQQDEEAGEGN | 1 | – |
| Superoxide dismutase [Cu-Zn] (enzyme) not shown | 1 | – |
| ATP synthase alpha chain; mitochondrial precursor (enzyme, mouse, UniProt Q03265 44-553, looked up) QKTGTAEMSSILEERILGADTSVDLEETGRVLSIGDGIARVHGLRNVQAEEMVEFSSGLKGMSLNLEPDNVGVVVFGNDKLIKEGDVVKRTGAIVDVPVGEELLGRVVDALGNAIDGKGPIGSKTRRRVGLKAPGIIPRISVREPMQTGIKAVDSLVPIGRGQRELIIGDRQTGKTSIAIDTIINQKRFNDGTDEKKKLYCIYVAIGQKRSTVAQLVKRLTDADAMKYTIVVSATASDAAPLQYLAPYSGCSMGEYFRDNGKHALIIYDDLSKQAVAYRQMSLLLRRPPGREAYPGDVFYLHSRLLERAAKMNDSFGGGSLTALPVIETQAGDVSAYIPTNVISITDGQIFLETELFYKGIRPAINVGLSVSRVGSAAQTRAMKQVAGTMKLELAQYREVAAFAQFGSDLDAATQQLLSRGVRLTELLKQGQYSPMAIEEQVAVIYAGVRGYLDKLEPSKITKFENAFLSHVISQHQSLLGNIRSDGKISEQSDAKLKEIVTNFLAGFEP | – | 3.39 |

Second part, the binder after the results:

| probability that this protein is enriched (APP-TAP-AICD [1]) | iTRAQ ratio (APP-TAP-AICD [2]) | Binder |
| --- | --- | --- |
| 1 | – | MKIAA0820 protein (Fragment) (other, mouse, UniProt Q8BZ98 1-863, looked up, also called Q80TR2_MOUSE) MGNREMEELIPLVNRLQDAFSALGQSCLLELPQIAVVGGQSAGKSSVLENFVGRDFLPRGSGIVTRRPLVLQLVTSKAEYAEFLHCKGKKFTDFDEVRHEIEAETDRVTGMNKGISSIPINLRVYSPHVLNLTLIDLPGITKVPVGDQPPDIEYQIRDMIMQFITRENCLILAVTPANTDLANSDALKLAKEVDPQGLRTIGVITKLDLMDEGTDARDVLENKLLPLRRGYVGVVNRSQKDIDGKKDIKAAMLAERKFFLSHPAYRHIADRMGTPHLQKVLNQQLTNHIRDTLPNFRNKLQGQLLSIEHEVEAFKNFKPEDPTRKTKALLQMVQQFAVDFEKRIEGSGDQVDTLELSGGAKINRIFHERFPFEIVKMEFNEKELRREISYAIKNIHGIRTGLFTPDMAFEAIVKKQIVKLKGPSLKSVDLVMQELINTVKKCTKRLANFPRLCEETERIVANHIREREGKTKDQVLLLIDIQVSYINTNHEDFIGFANAQQRSSQVHKKSTIGNQVIRKGWLTVSNIGIMKGGSKGYWFVLTAESLSWYKDDEEKEKKYMLPLDNLKVRDVEKGFMSSKHVFALFNTEQRNVYKDYRFLELACDSQEDVDSWKASLLRAGVYPDKSVGSNKTENDENGQAENFSMDPQLERQVETIRNLVDSYMSIINKCIRDLIPKTIMHLMINNVKDFINSELLAQLYSSEDQNTLMEESAEQAQRRDEMLRMYQALKEALAIIGDINTATVSTPAPPPVDDSWLQHSRRSPPPSPTTQRRLTISAPLPRPTSGRGPAPAIPSPGPHSGAPPVPFRPGPLPPFPNSSDSFGAPPQVPSRPTRAPPSVPSRRPPPSPTRPTIIRPLESSLLD |
| 0.87 | – | Neuronal membrane glycoprotein M6-b (M6b) (other, mouse, UniProt P35803 1-328, looked up, also called Proteolipid protein PLP/dm-20) MKPAMETAAEENTEQSQERKVNSRAEMEIGRYHWMYPGSKNHQYRPVPNLGDRAGPLSSPGCFECCIKCLGGVPYASLVATILCFSGVALFCGCGHVALAGTVAILEQHFSTNTSDHALLSEVIQLMQYVIYGIASFFFLYGIILLAEGFYTTSAVKELHGEFKTTACGRCISGMFVFLTYVLGVAWLGVFGFSAVPVFMFYNIWSTCEVIKSPQSNGTSGVEQICVDVRQYGIIPWNAFPGKICGSALENICNTNEFYMSYHLFIVACAGAGATVIALIHFLMILSSNWAYLKDASKMQAYQDIKAKEEQELQDIQSRSKEQLNSYT |
| 1 | – | Myosin light chain kinase 2, skeletal/cardiac muscle (MLCK2) (Fragment) (enzyme, mouse, UniProt Q8VCR8 1-613, looked up, also called MYLK2_MOUSE) MTTENGAVELGSQSLSTEQTPKAAAGDGPSASEKEPSAPATEKDLSPPNAKKDPGAPDPKNNPDPPSLKKDPAKAPGPEKKGDPVPASASSQGPSGEGDGGGGPAEGSEGPPAALPLPTATAEASIQKLDPTQAPSGNQGSGEAKAGKKAAECREAGRRGSPAFLHSPSCPAIISCSEKTLAVKPLSETTDLVFTGVSVTPDPQDPGPVKAGGTNALAEKKKEEAEKASGQAGQAKVQGDTPQRIGFQAVPSERVEVGQALCLTAREEDCFQILDDCPPPPAPFPHRIVELRTGNVNSEFSMNSKEALGGGKFGAVCTCTERATGLKLAAKVIKKQTPKDKEMVLLEIEVMNQLNHRNLIQLYAAIETSHEIILFMEYIEGGELFERIVDEDYHLTEVDTMVFVRQICDGILFMHKMRVLHLDLKPENILCVNTTGHLVKIIDFGLARRYNPNEKLKVNFGTPEFLSPEVVNYDQISDKTDMWSLGVITYMLLSGLSPFLGDDDTETLNNVLSANWYFDEETFEAVSDEAKDFVSNLLTKDQSARMSAEQCLAHPWLNNLAEKAKRCNRRLKSQILLKKYLMKRRWKKNFIAVSAANRFKKISSSGALMALGV |
| 1 | – | Elongation factor 1-alpha 2 (EF-1-alpha-2) (Elongation factor 1 A-2) (eEF1A-2) (Statin S1) (other, mouse, UniProt P62631 2-463, looked up, also called EF1A2_MOUSE) GKEKTHINIVVIGHVDSGKSTTTGHLIYKCGGIDKRTIEKFEKEAAEMGKGSFKYAWVLDKLKAERERGITIDISLWKFETTKYYITIIDAPGHRDFIKNMITGTSQADCAVLIVAAGVGEFEAGISKNGQTREHALLAYTLGVKQLIVGVNKMDSTEPAYSEKRYDEIVKEVSAYIKKIGYNPATVPFVPISGWHGDNMLEPSPNMPWFKGWKVERKEGNASGVSLLEALDTILPPTRPTDKPLRLPLQDVYKIGGIGTVPVGRVETGILRPGMVVTFAPVNITTEVKSVEMHHEALSEALPGDNVGFNVKNVSVKDIRRGNVCGDSKADPPQEAAQFTSQVIILNHPGQISAGYSPVIDCHTAHIACKFAELKEKIDRRSGKKLEDNPKSLKSGDAAIVEMVPGKPMCVESFSQYPPLGRFAVRDMRQTVAVGVIKNVEKKSGGAGKVTKSAQKAQKAGK |
| – | 3.22 | Tubulin beta-4 chain (other, mouse, UniProt Q9D6F9 1-444, looked up, also called TBB4_MOUSE) MREIVHLQAGQCGNQIGAKFWEVISDEHGIDPTGTYHGDSDLQLERINVYYNEATGGNYVPRAVLVDLEPGTMDSVRSGPFGQIFRPDNFVFGQSGAGNNWAKGHYTEGAELVDAVLDVVRKEAESCDCLQGFQLTHSLGGGTGSGMGTLLISKIREEFPDRIMNTFSVVPSPKVSDTVVEPYNATLSVHQLVENTDETYCIDNEALYDICFRTLKLTTPTYGDLNHLVSATMSGVTTCLRFPGQLNADLRKLAVNMVPFPRLHFFMPGFAPLTSRGSQQYRALTVPELTQQMFDAKNMMAACDPRHGRYLTVAAVFRGRMSMKEVDEQMLSVQSKNSSYFVEWIPNNVKTAVCDIPPRGLKMAATFIGNSTAIQELFKRISEQFTAMFRRKAFLHWYTGEGMDEMEFTEAESNMNDLVSEYQQYQDATAEEGEFEEEAEEEVA |
| 0.88 | – | Sodium/potassium-transporting ATPase alpha-2 chain precursor (Sodium pump 2) (Na+/K+ ATPase 2) (Alpha(+)) (enzyme, also called AT1A2_MOUSE) not shown |
| 1 | – | Peroxiredoxin-5, mitochondrial precursor (Prx-V) (enzyme, mouse, UniProt P99029 49-210, looked up, also called PRDX5_MOUSE) MAPIKVGDAIPSVEVFEGEPGKKVNLAELFKGKKGVLFGVPGAFTPGCSKTHLPGFVEQAGALKAKGAQVVACLSVNDVFVIEEWGRAHQAEGKVRLLADPTGAFGKATDLLLDDSLVSLFGNRRLKRFSMVIDNGIVKALNVEPDGTGLTCSLAPNILSQL |
| 1 | – | Excitatory amino acid transporter 1 (Sodium-dependent glutamate/aspartate transporter) (GLAST) (other, mouse, UniProt P56564 1-543, looked up, also called EAA1_MOUSE) MTKSNGEEPRMGGRMERLQQGVRKRTLLAKKKVQSLTKEDVKSYLFRNAFVLLTVTAVIVGTILGFALRPYKMSYREVKYFSFPGELLMRMLQMLVLPLIISSLVTGMAALDSKASGKMGMRAVVYYMTTTIIAVVIGIIIVIIIHPGKGTKENMYREGKIVQVTAADAFLDLIRNMFPPNLVEACFKQFKTSYEKRSFKVPIQSNETLLGAVINNVSEAMETLTRIREEMVPVPGSVNGVNALGLVVFSMCFGFVIGNMKEQGQALREFFDSLNEAIMRLVAVIMWYAPLGILFLIAGKIVEMEDMGVIGGQLAMYTVTVIVGLLIHAVIVLPLLYFLVTRKNPWVFIGGLLQALITALGTSSSSATLPITFKCLEENNGVDKRITRFVLPVGATINMDGTALYEALAAIFIAQVNNFDLNFGQIITISITATAASIGAAGIPQAGLVTMVIVLTSVGLPTDDITLIIAVDWFLDRLRTTTNVLGDSLGAGIVEHLSRHELKNRDVEMGNSVIEENEMKKPYQLIAQDNEPEKPVADSETKM |
